Test results from patent publication US20230348578A1, “CONFORMATION-SPECIFIC ANTIBODIES THAT BIND TAU PROTEIN AND USES THEREOF” (Beth Israel Deaconess Medical Center, Inc., priority 2020, published 2023).

target: cis P-tau (Homo sapiens, UniProt P10636); assay: Elimination of cis P-tau in cultured neurons stressed by hypoxia; type: cell-based; design: endogenous in cells; settings: 2.5 μg/ml, 5 μg/ml and 10 μg/ml
Method: (§1) The binding affinity of selected humanized antibody clones was determined by Biacore assay using a wild-type P-tau peptide and its pure cis or cis-locked, and pure trans counterparts. The […] of the selected humanized cis mAb variants was determined by assessing their ability to eliminate cis P-tau in stressed neurons in cell cultures. Functional restoration of selected clones was determined by their ability to restore risk-taking behavior after 3-hit or 7-hit repetitive TBI in mice, as assayed by elevated plus maze.
Cultured neurons were subjected to neuron stress by hypoxia in the presence or absence of different concentration of humanized antibody variants, followed by immunoblotting analysis to analyze cis P-tau levels in the stressed neurons, the results of which are provided in FIGS. 2-4. FIG. 2 is an immunostaining image showing the ability of humanized cis pT231-tau monoclonal antibody variants to eliminate cis P-tau in neurons under hypoxic conditions. Cis P-tau levels are reported in red and blue reports nuclear staining (Hoechst) to represent all neurons in the experiment. […] Cis P-tau levels are reported in red and blue reports nuclear staining (Hoechst) to represent all neurons in the experiment. […] IgG is a negative control. The cis-pTau monoclonal antibody C113 serves as a positive control.

cis P-tau, sequence (P10636 1-441 isoform P10636-8): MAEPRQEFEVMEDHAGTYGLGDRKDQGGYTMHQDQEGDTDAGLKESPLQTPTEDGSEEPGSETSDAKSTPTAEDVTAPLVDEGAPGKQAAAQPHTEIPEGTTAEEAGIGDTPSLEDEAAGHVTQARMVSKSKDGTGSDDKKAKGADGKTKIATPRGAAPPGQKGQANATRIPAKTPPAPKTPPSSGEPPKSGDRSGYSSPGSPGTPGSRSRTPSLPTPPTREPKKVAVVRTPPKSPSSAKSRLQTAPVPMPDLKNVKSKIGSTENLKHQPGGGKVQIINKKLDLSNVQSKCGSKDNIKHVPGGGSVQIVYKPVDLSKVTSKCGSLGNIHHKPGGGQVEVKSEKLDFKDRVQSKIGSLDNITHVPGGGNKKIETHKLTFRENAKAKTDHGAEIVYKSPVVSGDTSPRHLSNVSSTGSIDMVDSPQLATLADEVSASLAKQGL

Molecule | elimination of cis P-tau in neurons under hypoxic conditions (images)
C113: previously described murine cis-pTau monoclonal antibody (U.S. Pat. No. 9,688,747); SEQ ID NO: 24 and 15; positive control (antibody, V domains shown, previously described murine cis-pTau monoclonal antibody (U.S. Pat. No. 9,688,747); positive control) VH: QVQLQQPGAELVKPGASVKMSCKASGYTFTSYWIHWVKQRPGQGLEWIGVIDPSDSYTRYNQKFKGKATLTVDTSSSTAYMQLSSLTSEDSAVYYCTTWEVDYWGQGTTLTVSS VL: DVVMTQTPLSLPVSLGDQASISCRSSQSLVHSDGNTYLHWYLQKPGQSPKLLIYKVSNRFSGVPDRFSGSGSGTDFTLKISRLEAEDLGVYFCSQSTHVPWTFGGGTKLEIK | elimination of cis P-tau
HT13: mouse-human chimera control antibody; heavy chain variable domain SEQ ID NO: 24, light chain variable domain SEQ ID NO: 15 (antibody, V domains shown) VH: QVQLQQPGAELVKPGASVKMSCKASGYTFTSYWIHWVKQRPGQGLEWIGVIDPSDSYTRYNQKFKGKATLTVDTSSSTAYMQLSSLTSEDSAVYYCTTWEVDYWGQGTTLTVSS VL: DVVMTQTPLSLPVSLGDQASISCRSSQSLVHSDGNTYLHWYLQKPGQSPKLLIYKVSNRFSGVPDRFSGSGSGTDFTLKISRLEAEDLGVYFCSQSTHVPWTFGGGTKLEIK | elimination of cis P-tau

target: cis pT231-tau (P-tau peptide, pure cis or cis-locked); assay: Biacore assay of binding affinity of humanized cis mAb variants; settings: not given
Text: We next started to characterize and select lead humanized mAbs. We expressed and purified humanized mAb variants using a CHO expression system. We transfected over 45 plasmid DNA pairs of heavy and light chain cDNAs into CHO cells to express over 225 humanized cis mAb variants in various combinations. To evaluate the target binding specificity and affinity of our mouse mAbs, we established a simple and quantitative ELISA to screen the clones using a wild-type P-tau peptide and its pure cis or cis-locked, and pure trans counterparts and determined the binding affinity for selected clones using Biacore assays. We screened over 200 humanized cis mAb variants. […] Furthermore, one-tenth of humanized cis mAb variants were also able to recognize cis P-tau in human AD and TBI brains based on immunostaining analysis.
as §1

Molecule | Kd
HT17: humanized cis-pThr231-tau mAb; heavy chain variable domain SEQ ID NO: 28, light chain variable domain SEQ ID NO: 17 (antibody, V domains shown) VH: QVQLVQSGAEVKKPGASVKVSCKASGYTFTSYWIHWVRQRPGQGLEWIGVIDPSDSYTRYNQKFKGRVTITRDTSASTAYMELSSLRSEDTAVYYCTTWEVDYWGQGTLVTVSS VL: DVVMTQSPLSLPVTLGQPASISCRSSQSLVHSDGNTYLNWYLQKPGQSPQLLIYKVSNRFSGVPDRFSGSGSGTDFTLKISRVEAEDVGVYFCSQSTHVPWTFGGGTKVEIK | 4940 nM
HT5: humanized cis-pThr231-tau mAb; heavy chain variable domain SEQ ID NO: 25, light chain variable domain SEQ ID NO: 18 (antibody, V domains shown) VH: QVQLVQSGAELKKPGASVKMSCKASGYTFTSYWIHWVKQRPGQGLEWIGVIDPSDSYTRYNQKFKGRATLTVDTSASTAYMQLSSLTSEDSAVYYCTTWEVDYWGQGTTVTVSS VL: DVVMTQSPLSLPVTLGQPASISCRSSQSLVHSDGNTYLHWYLQKPGQSPQLLIYKVSNRDSGVPDRFSGSGSGTDFTLKISRVEAEDVGVYFCSQSTHVPWTFGGGTKVEIK | 6.91 nM
HT4: humanized cis-pThr231-tau mAb; heavy chain variable domain SEQ ID NO: 28, light chain variable domain SEQ ID NO: 16 (antibody, V domains shown) VH: QVQLVQSGAEVKKPGASVKVSCKASGYTFTSYWIHWVRQRPGQGLEWIGVIDPSDSYTRYNQKFKGRVTITRDTSASTAYMELSSLRSEDTAVYYCTTWEVDYWGQGTLVTVSS VL: DVVMTQSPLSLPVTLGQPASISCRSSQSLVHSDGNTYLHWYLQKPGQSPQLLIYKVSNRFSGVPDRFSGSGSGTDFTLKISRVEAEDVGVYFCSQSTHVPWTFGGGTKVEIK | 2.42 nM
HT6: humanized cis-pThr231-tau mAb; heavy chain variable domain SEQ ID NO: 26, light chain variable domain SEQ ID NO: 18 (antibody, V domains shown) VH: QVQLVQSGAEVKKPGASVKMSCKASGYTFTSYWIHWVKQRPGQGLEWIGVIDPSDSYTRYNQKFKGRATLTVDTSASTAYMELSSLRSEDTAVYYCTTWEVDYWGQGTLVTVSS VL: DVVMTQSPLSLPVTLGQPASISCRSSQSLVHSDGNTYLHWYLQKPGQSPQLLIYKVSNRDSGVPDRFSGSGSGTDFTLKISRVEAEDVGVYFCSQSTHVPWTFGGGTKVEIK | 6.48 nM
HT7: humanized cis-pThr231-tau mAb; heavy chain variable domain SEQ ID NO: 27, light chain variable domain SEQ ID NO: 18 (antibody, V domains shown) VH: QVQLVQSGAEVKKPGASVKVSCKASGYTFTSYWIHWVRQRPGQGLEWIGVIDPSDSYTRYNQKFKGRVTLTVDTSASTAYMELSSLRSEDTAVYYCTTWEVDYWGQGTLVTVSS VL: DVVMTQSPLSLPVTLGQPASISCRSSQSLVHSDGNTYLHWYLQKPGQSPQLLIYKVSNRDSGVPDRFSGSGSGTDFTLKISRVEAEDVGVYFCSQSTHVPWTFGGGTKVEIK | 10.8 nM
HT16: humanized cis-pThr231-tau mAb; heavy chain variable domain SEQ ID NO: 27, light chain variable domain SEQ ID NO: 17 (antibody, V domains shown) VH: QVQLVQSGAEVKKPGASVKVSCKASGYTFTSYWIHWVRQRPGQGLEWIGVIDPSDSYTRYNQKFKGRVTLTVDTSASTAYMELSSLRSEDTAVYYCTTWEVDYWGQGTLVTVSS VL: DVVMTQSPLSLPVTLGQPASISCRSSQSLVHSDGNTYLNWYLQKPGQSPQLLIYKVSNRFSGVPDRFSGSGSGTDFTLKISRVEAEDVGVYFCSQSTHVPWTFGGGTKVEIK | 3.26 nM
HT14: humanized cis-pThr231-tau mAb; heavy chain variable domain SEQ ID NO: 25, light chain variable domain SEQ ID NO: 17 (antibody, V domains shown) VH: QVQLVQSGAELKKPGASVKMSCKASGYTFTSYWIHWVKQRPGQGLEWIGVIDPSDSYTRYNQKFKGRATLTVDTSASTAYMQLSSLTSEDSAVYYCTTWEVDYWGQGTTVTVSS VL: DVVMTQSPLSLPVTLGQPASISCRSSQSLVHSDGNTYLNWYLQKPGQSPQLLIYKVSNRFSGVPDRFSGSGSGTDFTLKISRVEAEDVGVYFCSQSTHVPWTFGGGTKVEIK | 30.2 nM
HT13: mouse-human chimera control antibody; heavy chain variable domain SEQ ID NO: 24, light chain variable domain SEQ ID NO: 15 (antibody, V domains shown) VH: QVQLQQPGAELVKPGASVKMSCKASGYTFTSYWIHWVKQRPGQGLEWIGVIDPSDSYTRYNQKFKGKATLTVDTSSSTAYMQLSSLTSEDSAVYYCTTWEVDYWGQGTTLTVSS VL: DVVMTQTPLSLPVSLGDQASISCRSSQSLVHSDGNTYLHWYLQKPGQSPKLLIYKVSNRFSGVPDRFSGSGSGTDFTLKISRLEAEDLGVYFCSQSTHVPWTFGGGTKLEIK | 1.26 nM
HT12: humanized cis-pThr231-tau mAb; heavy chain variable domain SEQ ID NO: 28, light chain variable domain SEQ ID NO: 19 (antibody, V domains shown) VH: QVQLVQSGAEVKKPGASVKVSCKASGYTFTSYWIHWVRQRPGQGLEWIGVIDPSDSYTRYNQKFKGRVTITRDTSASTAYMELSSLRSEDTAVYYCTTWEVDYWGQGTLVTVSS VL: DVVMTQSPLSLPVTLGQPASISCRSSQSLVHSDGNTYLHWYLQKPGQSPQLLIYKVSNRFSGVPDRFSGSGSGTDFTLKISRVEAEDVGVYYCSQSTHVPWTFGGGTKVEIK | 3.55 nM
HT11: humanized cis-pThr231-tau mAb; heavy chain variable domain SEQ ID NO: 27, light chain variable domain SEQ ID NO: 19 (antibody, V domains shown) VH: QVQLVQSGAEVKKPGASVKVSCKASGYTFTSYWIHWVRQRPGQGLEWIGVIDPSDSYTRYNQKFKGRVTLTVDTSASTAYMELSSLRSEDTAVYYCTTWEVDYWGQGTLVTVSS VL: DVVMTQSPLSLPVTLGQPASISCRSSQSLVHSDGNTYLHWYLQKPGQSPQLLIYKVSNRFSGVPDRFSGSGSGTDFTLKISRVEAEDVGVYYCSQSTHVPWTFGGGTKVEIK | 3.99 nM
HT15: humanized cis-pThr231-tau mAb; heavy chain variable domain SEQ ID NO: 26, light chain variable domain SEQ ID NO: 17 (antibody, V domains shown) VH: QVQLVQSGAEVKKPGASVKMSCKASGYTFTSYWIHWVKQRPGQGLEWIGVIDPSDSYTRYNQKFKGRATLTVDTSASTAYMELSSLRSEDTAVYYCTTWEVDYWGQGTLVTVSS VL: DVVMTQSPLSLPVTLGQPASISCRSSQSLVHSDGNTYLNWYLQKPGQSPQLLIYKVSNRFSGVPDRFSGSGSGTDFTLKISRVEAEDVGVYFCSQSTHVPWTFGGGTKVEIK | 33.4 nM
HT9: humanized cis-pThr231-tau mAb; heavy chain variable domain SEQ ID NO: 25, light chain variable domain SEQ ID NO: 19 (antibody, V domains shown) VH: QVQLVQSGAELKKPGASVKMSCKASGYTFTSYWIHWVKQRPGQGLEWIGVIDPSDSYTRYNQKFKGRATLTVDTSASTAYMQLSSLTSEDSAVYYCTTWEVDYWGQGTTVTVSS VL: DVVMTQSPLSLPVTLGQPASISCRSSQSLVHSDGNTYLHWYLQKPGQSPQLLIYKVSNRFSGVPDRFSGSGSGTDFTLKISRVEAEDVGVYYCSQSTHVPWTFGGGTKVEIK | 1.89 nM
